{"source": "the RNAGym collection of RNA variant scans (doi:10.7554/elife.80360)", "parents": {"B1": {"name": "Twister Ribozyme (parent)", "chain": "AACACUGCCAAUGCCGGUCCCAAGCCCGGAUAAAAGUGGAGGGGGCGG"}}, "data": [{"variants_of": "B1", "assay": "self-cleavage, relative activity (ratio to wild type); higher = more cleavage; co-transcriptional", "values": [{"variant": "AACACUGCCAAUGCCGGUCUCAAGCCCGGAUAAAAGUGGAGGUGGCGG", "note": "[C20U G43U]", "self-cleavage": 0.146}, {"variant": "AACACUGCCAAUGCCGGUCUCAAGCCCGGAUAAAAGUGGAGGGAGCGG", "note": "[C20U G44A]", "self-cleavage": 1}, {"variant": "AACACUGCCAAUGCCGGUCUCAAGCCCGGAUAAAAGUGGAGGGCGCGG", "note": "[C20U G44C]", "self-cleavage": 0.816}, {"variant": "AACACUGCCAAUGCCGGUCUCAAGCCCGGAUAAAAGUGGAGGGUGCGG", "note": "[C20U G44U]", "self-cleavage": 0.893}, {"variant": "AACACUGCCAAUGCCGGUCUCAAGCCCGGAUAAAAGUGGAGGGGUCGG", "note": "[C20U G45U]", "self-cleavage": 0.802}, {"variant": "AACACUGCCAAUGCCGGUCUCAAGCCCGGAUAAAAGUGGAGGGGGCCG", "note": "[C20U G47C]", "self-cleavage": 0.165}, {"variant": "AACACUGCCAAUGCCGGUCUCAAGCCCGGAUAAAAGUGGAGGGGGCUG", "note": "[C20U G47U]", "self-cleavage": 0.564}, {"variant": "AACACUGCCAAUGCCGGUCUCAAGCCCGGAUAAAAGUGGAGGGGGCGA", "note": "[C20U G48A]", "self-cleavage": 0.907}, {"variant": "AACACUGCCAAUGCCGGUCUCAAGCCCGGAUAAAAGUGGAGGGGGCGU", "note": "[C20U G48U]", "self-cleavage": 0.963}, {"variant": "AACACUGCCAAUGCCGGUCUCAAGCCCGGACAAAAGUGGAGGGGGCGG", "note": "[C20U U31C]", "self-cleavage": 1.03}, {"variant": "AACACUGCCAAUGCCGGUCUCAAGCCCGGAGAAAAGUGGAGGGGGCGG", "note": "[C20U U31G]", "self-cleavage": 0.873}, {"variant": "AACACUGCCAAUGCCGGUCUCAAGCCCGGAUAAAAGAGGAGGGGGCGG", "note": "[C20U U37A]", "self-cleavage": 0.474}, {"variant": "AACACUGCCAAUGCCGGUCUCAAGCCCGGAUAAAAGCGGAGGGGGCGG", "note": "[C20U U37C]", "self-cleavage": 0.192}, {"variant": "AACACUGCCAAUGCCGGUCCAAAGCCCGGAUAAAAGUGGAGGGGGCGG", "note": "[C21A]", "self-cleavage": 0.13}, {"variant": "AACACUGCCAAUGCCGGUCCAUAGCCCGGAUAAAAGUGGAGGGGGCGG", "note": "[C21A A22U]", "self-cleavage": 0.0641}, {"variant": "AACACUGCCAAUGCCGGUCCAAUGCCCGGAUAAAAGUGGAGGGGGCGG", "note": "[C21A A23U]", "self-cleavage": 0.091}, {"variant": "AACACUGCCAAUGCCGGUCCAAAGCCCGGGUAAAAGUGGAGGGGGCGG", "note": "[C21A A30G]", "self-cleavage": 0.0944}, {"variant": "AACACUGCCAAUGCCGGUCCAAAGCCCGGAUGAAAGUGGAGGGGGCGG", "note": "[C21A A32G]", "self-cleavage": 0.0702}, {"variant": "AACACUGCCAAUGCCGGUCCAAAGCCCGGAUAACAGUGGAGGGGGCGG", "note": "[C21A A34C]", "self-cleavage": 0.0648}, {"variant": "AACACUGCCAAUGCCGGUCCAAAGCCCGGAUAAGAGUGGAGGGGGCGG", "note": "[C21A A34G]", "self-cleavage": 0.052}, {"variant": "AACACUGCCAAUGCCGGUCCAAAGCCCGGAUAAACGUGGAGGGGGCGG", "note": "[C21A A35C]", "self-cleavage": 0.083}, {"variant": "AACACUGCCAAUGCCGGUCCAAAGCCCGGAUAAAGGUGGAGGGGGCGG", "note": "[C21A A35G]", "self-cleavage": 0.0738}, {"variant": "AACACUGCCAAUGCCGGUCCAAAGCCCGGAUAAAAGUGGCGGGGGCGG", "note": "[C21A A40C]", "self-cleavage": 0.0907}, {"variant": "AACACUGCCAAUGCCGGUCCAAAGCCCGGAUAAAAGUGGUGGGGGCGG", "note": "[C21A A40U]", "self-cleavage": 0.0782}, {"variant": "AACACUGCCAAUGCCGGUCCAAAGCACGGAUAAAAGUGGAGGGGGCGG", "note": "[C21A C26A]", "self-cleavage": 0.069}, {"variant": "AACACUGCCAAUGCCGGUCCAAAGCUCGGAUAAAAGUGGAGGGGGCGG", "note": "[C21A C26U]", "self-cleavage": 0.07}, {"variant": "AACACUGCCAAUGCCGGUCCAAAGCCAGGAUAAAAGUGGAGGGGGCGG", "note": "[C21A C27A]", "self-cleavage": 0.0685}, {"variant": "AACACUGCCAAUGCCGGUCCAAAGCCGGGAUAAAAGUGGAGGGGGCGG", "note": "[C21A C27G]", "self-cleavage": 0.0914}, {"variant": "AACACUGCCAAUGCCGGUCCAAAGCCUGGAUAAAAGUGGAGGGGGCGG", "note": "[C21A C27U]", "self-cleavage": 0.0904}, {"variant": "AACACUGCCAAUGCCGGUCCAAAGCCCGGAUAAAAGUGGAGGGGGAGG", "note": "[C21A C46A]", "self-cleavage": 0.0995}, {"variant": "AACACUGCCAAUGCCGGUCCAAAGCCCGGAUAAAAGUGGAGGGGGGGG", "note": "[C21A C46G]", "self-cleavage": 0.173}, {"variant": "AACACUGCCAAUGCCGGUCCAAAGCCCGGAUAAAAGUGGAGGGGGUGG", "note": "[C21A C46U]", "self-cleavage": 0.13}, {"variant": "AACACUGCCAAUGCCGGUCCAAAACCCGGAUAAAAGUGGAGGGGGCGG", "note": "[C21A G24A]", "self-cleavage": 0.0758}, {"variant": "AACACUGCCAAUGCCGGUCCAAACCCCGGAUAAAAGUGGAGGGGGCGG", "note": "[C21A G24C]", "self-cleavage": 0.0911}, {"variant": "AACACUGCCAAUGCCGGUCCAAAGCCCCGAUAAAAGUGGAGGGGGCGG", "note": "[C21A G28C]", "self-cleavage": 0.149}, {"variant": "AACACUGCCAAUGCCGGUCCAAAGCCCUGAUAAAAGUGGAGGGGGCGG", "note": "[C21A G28U]", "self-cleavage": 0.129}, {"variant": "AACACUGCCAAUGCCGGUCCAAAGCCCGUAUAAAAGUGGAGGGGGCGG", "note": "[C21A G29U]", "self-cleavage": 0.134}, {"variant": "AACACUGCCAAUGCCGGUCCAAAGCCCGGAUAAAACUGGAGGGGGCGG", "note": "[C21A G36C]", "self-cleavage": 0.109}, {"variant": "AACACUGCCAAUGCCGGUCCAAAGCCCGGAUAAAAUUGGAGGGGGCGG", "note": "[C21A G36U]", "self-cleavage": 0.0686}, {"variant": "AACACUGCCAAUGCCGGUCCAAAGCCCGGAUAAAAGUCGAGGGGGCGG", "note": "[C21A G38C]", "self-cleavage": 0.101}, {"variant": "AACACUGCCAAUGCCGGUCCAAAGCCCGGAUAAAAGUGAAGGGGGCGG", "note": "[C21A G39A]", "self-cleavage": 0.0763}, {"variant": "AACACUGCCAAUGCCGGUCCAAAGCCCGGAUAAAAGUGUAGGGGGCGG", "note": "[C21A G39U]", "self-cleavage": 0.0973}, {"variant": "AACACUGCCAAUGCCGGUCCAAAGCCCGGAUAAAAGUGGAAGGGGCGG", "note": "[C21A G41A]", "self-cleavage": 0.27}, {"variant": "AACACUGCCAAUGCCGGUCCAAAGCCCGGAUAAAAGUGGAGGGCGCGG", "note": "[C21A G44C]", "self-cleavage": 0.0966}, {"variant": "AACACUGCCAAUGCCGGUCCAAAGCCCGGAUAAAAGUGGAGGGGGCCG", "note": "[C21A G47C]", "self-cleavage": 0.0714}, {"variant": "AACACUGCCAAUGCCGGUCCAAAGCCCGGAUAAAAGUGGAGGGGGCUG", "note": "[C21A G47U]", "self-cleavage": 0.117}, {"variant": "AACACUGCCAAUGCCGGUCCAAAGCCCGGAUAAAAGUGGAGGGGGCGA", "note": "[C21A G48A]", "self-cleavage": 0.107}, {"variant": "AACACUGCCAAUGCCGGUCCAAAGCCCGGAUAAAAGUGGAGGGGGCGU", "note": "[C21A G48U]", "self-cleavage": 0.154}, {"variant": "AACACUGCCAAUGCCGGUCCAAAGCCCGGAUAAAAGCGGAGGGGGCGG", "note": "[C21A U37C]", "self-cleavage": 0.115}, {"variant": "AACACUGCCAAUGCCGGUCCAAAGCCCGGAUAAAAGGGGAGGGGGCGG", "note": "[C21A U37G]", "self-cleavage": 0.0471}, {"variant": "AACACUGCCAAUGCCGGUCCGAAGCCCGGAUAAAAGUGGAGGGGGCGG", "note": "[C21G]", "self-cleavage": 0.0865}, {"variant": "AACACUGCCAAUGCCGGUCCGAAGCCCGGUUAAAAGUGGAGGGGGCGG", "note": "[C21G A30U]", "self-cleavage": 0.0816}, {"variant": "AACACUGCCAAUGCCGGUCCGAAGCCCGGAUCAAAGUGGAGGGGGCGG", "note": "[C21G A32C]", "self-cleavage": 0.0636}, {"variant": "AACACUGCCAAUGCCGGUCCGAAGCCCGGAUGAAAGUGGAGGGGGCGG", "note": "[C21G A32G]", "self-cleavage": 0.0254}]}]}
